Data published in US20030158102A1 (MAYO FOUNDATION FOR MEDICAL EDUCATION AND RESEARCH, published 2003).
Residue numbers refer to the chain shown, from its start.

T1: B7-H2Ig fusion protein (extracellular domain of human B7-H2 linked to an Ig portion); which one not said for … (human, UniProt O75144 19-256)
T1 sequence (looked up): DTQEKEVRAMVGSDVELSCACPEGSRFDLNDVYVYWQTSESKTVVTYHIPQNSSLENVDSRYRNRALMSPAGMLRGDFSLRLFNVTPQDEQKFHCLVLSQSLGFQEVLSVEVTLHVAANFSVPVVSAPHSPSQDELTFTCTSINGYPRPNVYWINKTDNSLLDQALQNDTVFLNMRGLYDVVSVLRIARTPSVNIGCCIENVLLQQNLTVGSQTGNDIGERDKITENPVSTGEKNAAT

T2: human B7-H2 expressed on transfected CHO cells (human, UniProt O75144 19-302)
T2 construct: whole, on cells; also called B7-H2+ CHO cells
T2 sequence (looked up): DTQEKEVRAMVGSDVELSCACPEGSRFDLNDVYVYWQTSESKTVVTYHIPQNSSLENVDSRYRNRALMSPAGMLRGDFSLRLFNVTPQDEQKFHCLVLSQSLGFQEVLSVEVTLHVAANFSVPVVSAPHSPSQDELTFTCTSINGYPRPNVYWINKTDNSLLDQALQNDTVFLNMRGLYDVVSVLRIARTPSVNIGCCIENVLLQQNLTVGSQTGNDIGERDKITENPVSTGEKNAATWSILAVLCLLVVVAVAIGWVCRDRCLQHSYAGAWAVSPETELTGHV

T3: B7-H2mIg (extracellular domain of human B7-H2 linked to mouse IgG2a) (human; mouse, UniProt O75144 19-256)
T3 construct: extracellular domain; also called B7-H2Ig (mouse Ig); B7-H2Ig; not shown: mouse IgG2a
T3 sequence (looked up): T1 sequence (looked up)

B1: ICOSIg mutant Ser76Glu (Fc fusion)
chain: EINGSANYEMFIFHNGGVQILCKYPDIVQQFKMQLLKGGQILCDLTKTKGSGNTVEIKSLKFCHSQLSNNSVSFFLYNLDHSHANYYFCNLSIFDPPPFKVTLTGGYLHIYESQLCCQLK
notes: Built on ICOSIg cDNA; also called Ser76Glu mutant; Ser76Glu protein; not shown: CH2-CH3 portion of human IgG1
B2: ICOSIg mutant Phe114Ser (Fc fusion)
chain: B1 chain with E56S, F94S
notes: Built on ICOSIg cDNA; not shown: CH2-CH3 portion of human IgG1
B3: ICOSIg mutant Lys67Ser (Fc fusion)
chain: B1 chain with K47S, E56S
notes: as for B2
B4: ICOSIg mutant Asp115Ser (Fc fusion)
chain: B1 chain with E56S, D95S
notes: as for B2
B5: ICOSIg mutant Phe51Ser (Fc fusion)
chain: B1 chain with F31S, E56S
notes: as for B2
B6: ICOSIg mutant Phe119Ser (Fc fusion)
chain: B1 chain with E56S, F99S
notes: as for B2
B7: ICOSIg mutant Pro117Ser (Fc fusion)
chain: B1 chain with E56S, P97S
notes: Built on ICOSIg cDNA; also called Pro117Ser mutant; not shown: CH2-CH3 portion of human IgG1
B8: ICOSIg homologue replacement mutant RP64-78 (Fc fusion)
chain: EINGSANYEMFIFHNGGVQILCKYPDIVQQFKMQLLKGGQILCVVYGNYSQQLQVYSKSLKFCHSQLSNNSVSFFLYNLDHSHANYYFCNLSIFDPPPFKVTLTGGYLHIYESQLCCQLK
notes: not shown: CH2-CH3 portion of human IgG1
B9: wild-type ICOSIg (extracellular domain of human ICOS fused to the CH2-CH3 portion of human IgG1) (Fc fusion)
chain: B1 chain with E56S
notes: Made in COS cells; used as concentrated supernatant or purified; also called human ICOSIg; not shown: CH2-CH3 portion of human IgG1
B10: ICOSIg mutant Lys69Ser (Fc fusion)
chain: B1 chain with K49S, E56S
notes: as for B2
B11: ICOSIg mutant Gln49Ser (Fc fusion)
chain: B1 chain with Q29S, E56S
notes: as for B2
B12: ICOSIg mutant Lys52Ser (Fc fusion)
chain: B1 chain with K32S, E56S
notes: as for B2
B13: ICOSIg mutant Asp64Ser (Fc fusion)
chain: B1 chain with D44S, E56S
notes: as for B2
B14: ICOSIg homologue replacement mutant RP49-52 (Fc fusion)
chain: B1 chain with Q29R, Q30E, K32R, E56S
notes: as for B8
B15: ICOSIg mutant Gln50Ser (Fc fusion)
chain: B1 chain with Q30S, E56S
notes: as for B2

target: T1, B7-H2Ig fusion protein (extracellular …); assay: cell-based or functional assay

| T cell proliferation ([3H]-thymidine) costimulated by immobilized B7-H2Ig with anti-CD3 mAb | Binder |
| --- | --- |
| ~10 fold (against wild-type ICOSIg) | B1 |

target: T2, human B7-H2 expressed on transfected …; assay: FACS on B7-H2+ CHO cells

| binding result | Binder |
| --- | --- |
| no binding | B2 |
| no binding | B3 |
| no binding | B4 |
| no binding | B5 |
| no binding | B6 |
| no binding | B7 |

target: T2, human B7-H2 expressed on transfected …; assay: FACS on CHO cells transfected to express B7-H2
Method: Flow cytometry: B7-H2⁺ CHO cells (1×10⁵ cells per sample) were incubated on ice for 45 minutes, in a 1:1 mixture of fluorescence activated cell sorter (FACS) buffer (3% FBS and 0.02% NaN₃ in PBS):COS cell culture media containing ICOSIg fusion proteins. The B7-H2Ig fusion protein was used as a negative control. The cells were washed and further incubated with fluorescein isothiocyanate (FITC)-conjugated goat anti-human IgG (BioSource, Camarillo, Calif.) on ice for 30 minutes. Fluorescence was analyzed on a FACScaliber flow cytometer (Becton Dickinson, Mountain View, Calif.) with Cell Quest software (Becton Dickinson).
Mutagenesis analysis of the interaction between ICOS and B7-H2: The conserved regions within ICOS were subjected to mutagenesis in order to analyze their importance for binding to B7-H2. […] These constructs were expressed as ICOSIg hybrid proteins in COS cells, and the concentrations of the mutant proteins in serum-free culture media was determined by sandwich ELISA using anti-human Ig mAbs (BD Pharmingen). […] The ability of each ICOSIg mutant to bind to B7-H2 was determined by sandwich ELISA using B7-H2Ig (mouse Ig) and anti-human Ig mAb (FIG. 3A), and also by FACS analysis of ICOSIg binding to CHO cells that were transfected to express B7-H2. […]

| binding result | Binder |
| --- | --- |
| no binding | B8 |

target: T3, B7-H2mIg (extracellular domain of human …); assay: capture ELISA, B7-H2mIg coated, anti-human IgG-HRP detection
Method: The ability of ICOSIg mutants to bind B7-H2 was measured using capture ELISA. Recombinant B7-H2mIg fusion proteins were coated on microtiter plates at 5 μg/ml and incubated overnight at 4° C. As described above, wells were blocked and then washed with PBS-Tween, and COS cell culture media was added and incubated for 2 hours at room temperature. HRP-conjugated goat anti-human IgG was added after washing, followed by TMB substrate and H₂SO₄, and absorbance was measured at 405 nm.
^a The regions, nucleotides, or amino acids in front of the slash were replaced with the corresponding regions, nucleotides, or amino acids after the slash. ^b Nucleotides are numbered from the A of the initiation codon. ^c Amino acids are numbered from the initiation methionine. ^d Specific binding activities were determined for each of the indicated fusion proteins. The concentration of a fusion protein required to give an arbitrary A405, which is the same as that of wild type ICOSIg, was determined from the linear region of binding curves and expressed as a percentage of specific binding activity of ICOSIg. Values represent the average of three determinations from each binding curve. The results are representative of three experiments.

| B7-H2 Binding (specific binding activity as percentage of ICOSIg) | Binder |
| --- | --- |
| < 0.1 % of wild type ICOSIg | B8 |
| 100 % of wild type ICOSIg | B9 |
| 3 % of wild type ICOSIg | B10 |
| < 0.1 % of wild type ICOSIg | B2 |
| < 0.1 % of wild type ICOSIg | B3 |
| < 0.1 % of wild type ICOSIg | B4 |
| < 0.1 % of wild type ICOSIg | B5 |
| 300 % of wild type ICOSIg | B1 |
| < 0.1 % of wild type ICOSIg | B6 |
| 33 % of wild type ICOSIg | B11 |
| 200 % of wild type ICOSIg | B12 |
| 6 % of wild type ICOSIg | B13 |
| < 0.1 % of wild type ICOSIg | B7 |
| 9 % of wild type ICOSIg | B14 |
| 6 % of wild type ICOSIg | B15 |
